Experimental data from US10967068B2, “Stability-modulating linkers for use with antibody drug conjugates” (priority 2014, dated 2021).
*1 amine or outer side, *2 acyl side, *3 side chain or, on linkers, in order; H or OH if unused. Where a SMILES comes first, the peptide text is derived from it. [ ]: non-standard residue; d: D form. The star is where a group is joined. Dolaproine = CO[C@@H]([C@@H]1CCCN1)[C@@H](C)C(=O)O; Dil = CC[C@H](C)[C@H](NC)[C@@H](CC(=O)O)OC; PABC = O=C(OCc1ccc(N[*:1])cc1)[*:2]; Doe = c1ccc(C[C@H](N*)c2nccs2)cc1; Cit = NC(=O)NCCC[C@H](N)C(=O)O; Aib = CC(C)(N)C(=O)O; X2 = CC1(C(=O)*)COC1; Moc = COC(=O)*

Experiment: In Vitro Stability Assay—Mouse Plasma
Format: in vitro ADME
Details: attachment position L11B; for Conjugate stability (%): % DAR remaining after plasma 3 or 4.5 days; for DAR: before plasma incubation

## CC[C@H](C)[C@@H]([C@@H](CC(=O)N1CCC[C@H]1[C@H](OC)[C@@H](C)C(=O)N[C@@H](Cc1ccccc1)c1nccs1)OC)N(C)C(=O)[C@@H](NC(=O)C(C)(C)NC(=O)OCc1ccc(NC(=O)[C@H](CCCNC(N)=O)NC(=O)[C@@H](NC(=O)[C@H](CCCCN)NC(=O)CN)C(C)C)cc1)C(C)C [Example 29, glycyl-L-lysylvalyl-N-{4-[(8S,11S,12R)-11-[(2S)-butan-2-yl]-12-(2-{(2S)-2-[(1R,2R)-1-methoxy-2-methyl-3-oxo-3-{[(1S)-2-phenyl-1-(1,3-thiazol-2-yl)ethyl]amino}propyl]pyrrolidin-1-yl}-2-oxoethyl)-5,5,10-trimethyl-3,6,9-trioxo-8-(propan-2-yl)-2,13-dioxa-4,7,10-triazatetradec-1-yl]phenyl}-N˜5˜-carbamoyl-L-ornithinamide] (H-GKV[Cit][PABC][Aib]V[Dil][Dolaproine]-Doe)
  DAR after plasma incubation for 3 to 4.5 days: 1.46
  Conjugate stability (%): 81%
  DAR: 1.80

## CC[C@H](C)[C@@H]([C@@H](CC(=O)N1CCC[C@H]1[C@H](OC)[C@@H](C)C(=O)N[C@@H](Cc1ccccc1)c1nccs1)OC)N(C)C(=O)[C@@H](NC(=O)C(C)(C)NC(=O)OCc1ccc(NC(=O)[C@H](CCCNC(N)=O)NC(=O)[C@@H](NC(=O)[C@H](CCCCN)NC(=O)C2(C)COC2)C(C)C)cc1)C(C)C [Example 30, N˜2˜-[(3-methyloxetan-3-yl)carbonyl]-L-lysyl-L-valyl-N-{4-[(8S,11S,12R)-11-[(2S)-butan-2-yl]-12-(2-{(2S)-2-[(1R,2R)-1-methoxy-2-methyl-3-oxo-3-{[(1S)-2-phenyl-1-(1,3-thiazol-2-yl)ethyl]amino}propyl]pyrrolidin-1-yl}-2-oxoethyl)-5,5,10-trimethyl-3,6,9-trioxo-8-(propan-2-yl)-2,13-dioxa-4,7,10-triazatetradec-1-yl]phenyl}-N˜5˜-carbamoyl-L-ornithinamide] (X2-KV[Cit][PABC][Aib]V[Dil][Dolaproine]-Doe)
  DAR after plasma incubation for 3 to 4.5 days: 0.06
  Conjugate stability (%): 5%
  DAR: 1.27

## CC[C@H](C)[C@@H]([C@@H](CC(=O)N1CCC[C@H]1[C@H](OC)[C@@H](C)C(=O)N[C@@H](Cc1ccccc1)c1nccs1)OC)N(C)C(=O)[C@@H](NC(=O)C(C)(C)NC(=O)OCc1ccc(NC(=O)[C@H](CCCNC(N)=O)NC(=O)[C@@H](NC(=O)[C@H](CCCCN)NC(=O)C(C)(C)N)C(C)C)cc1)C(C)C [Example 31, 2-methylalanyl-L-lysylvalyl-N-{4-[(8S,11S,12R)-11-[(2S)-butan-2-yl]-12-(2-{(2S)-2-[(1R,2R)-1-methoxy-2-methyl-3-oxo-3-{[(1S)-2-phenyl-1-(1,3-thiazol-2-yl)ethyl]amino}propyl]pyrrolidin-1-yl}-2-oxoethyl)-5,5,10-trimethyl-3,6,9-trioxo-8-(propan-2-yl)-2,13-dioxa-4,7,10-triazatetradec-1-yl]phenyl}-N˜5˜-carbamoyl-L-ornithinamide] (H-[Aib]KV[Cit][PABC][Aib]V[Dil][Dolaproine]-Doe)
  DAR after plasma incubation for 3 to 4.5 days: 0.03
  Conjugate stability (%): 2%
  DAR: 1.77

## CC[C@H](C)[C@@H]([C@@H](CC(=O)N1CCC[C@H]1[C@H](OC)[C@@H](C)C(=O)N[C@@H](Cc1ccccc1)c1nccs1)OC)N(C)C(=O)[C@@H](NC(=O)C(C)(C)NC(=O)OCc1ccc(NC(=O)[C@H](CCCNC(N)=O)NC(=O)[C@@H](NC(=O)[C@H](CCCCN)NC(=O)OC)C(C)C)cc1)C(C)C [Example 32, N˜2˜-(methoxycarbonyl)-L-lysylvalyl-N-{4-[(8S,11S,12R)-11-[(2S)-butan-2-yl]-12-(2-{(2S)-2-[(1R,2R)-1-methoxy-2-methyl-3-oxo-3-{[(1S)-2-phenyl-1-(1,3-thiazol-2-yl)ethyl]amino}propyl]pyrrolidin-1-yl}-2-oxoethyl)-5,5,10-trimethyl-3,6,9-trioxo-8-(propan-2-yl)-2,13-dioxa-4,7,10-triazatetradec-1-yl]phenyl}-N˜5˜-carbamoyl-L-ornithinamide] (Moc-KV[Cit][PABC][Aib]V[Dil][Dolaproine]-Doe)
  DAR after plasma incubation for 3 to 4.5 days: 0.08
  Conjugate stability (%): 5%
  DAR: 1.53

## CC[C@H](C)[C@@H]([C@@H](CC(=O)N1CCC[C@H]1[C@H](OC)[C@@H](C)C(=O)N[C@@H](Cc1ccccc1)c1nccs1)OC)N(C)C(=O)[C@@H](NC(=O)C(C)(C)NC(=O)OCc1ccc(NC(=O)[C@H](CCCNC(N)=O)NC(=O)[C@@H](NC(=O)[C@@H](N)CCCCN)C(C)C)cc1)C(C)C [Example 33, L-lysylvalyl-N-{4-[(8S,11S,12R)-11-[(2S)-butan-2-yl]-12-(2-{(2S)-2-[(1R,2R)-1-methoxy-2-methyl-3-oxo-3-{[(1S)-2-phenyl-1-(1,3-thiazol-2-yl)ethyl]amino}propyl]pyrrolidin-1-yl}-2-oxoethyl)-5,5,10-trimethyl-3,6,9-trioxo-8-(propan-2-yl)-2,13-dioxa-4,7,10-triazatetradec-1-yl]phenyl}-N˜5˜-carbamoyl-L-ornithinamide] (H-KV[Cit][PABC][Aib]V[Dil][Dolaproine]-Doe)
  DAR after plasma incubation for 3 to 4.5 days: 0.52
  Conjugate stability (%): 34%
  DAR: 1.53

## CC[C@H](C)[C@@H]([C@@H](CC(=O)N1CCC[C@H]1[C@H](OC)[C@@H](C)C(=O)N[C@@H](Cc1ccccc1)c1nccs1)OC)N(C)C(=O)[C@@H](NC(=O)C(C)(C)NC(=O)OCc1ccc(NC(=O)[C@H](CCCNC(N)=O)NC(=O)[C@@H](NC(=O)[C@H](CCCCN)NC(=O)[C@H](C)N)C(C)C)cc1)C(C)C [Example 34, L-alanyl-L-lysylvalyl-N-{4-[(8S,11S,12R)-11-[(2S)-butan-2-yl]-12-(2-{(2S)-2-[(1R,2R)-1-methoxy-2-methyl-3-oxo-3-{[(1S)-2-phenyl-1-(1,3-thiazol-2-yl)ethyl]amino}propyl]pyrrolidin-1-yl}-2-oxoethyl)-5,5,10-trimethyl-3,6,9-trioxo-8-(propan-2-yl)-2,13-dioxa-4,7,10-triazatetradec-1-yl]phenyl}-N˜5˜-carbamoyl-L-ornithinamide] (H-AKV[Cit][PABC][Aib]V[Dil][Dolaproine]-Doe)
  DAR after plasma incubation for 3 to 4.5 days: 0.86
  Conjugate stability (%): 50%
  DAR: 1.72

## CC[C@H](C)[C@@H]([C@@H](CC(=O)N1CCC[C@H]1[C@H](OC)[C@@H](C)C(=O)N[C@@H](Cc1ccccc1)c1nccs1)OC)N(C)C(=O)[C@@H](NC(=O)C(C)(C)NC(=O)OCc1ccc(NC(=O)[C@H](CCCNC(N)=O)NC(=O)[C@@H](NC(=O)[C@H](CCCCN)NC(=O)[C@@H](C)N)C(C)C)cc1)C(C)C [Example 35, D-alanyl-L-lysylvalyl-N-{4-[(8S,11S,12R)-11-[(2S)-butan-2-yl]-12-(2-{(2S)-2-[(1R,2R)-1-methoxy-2-methyl-3-oxo-3-{[(1S)-2-phenyl-1-(1,3-thiazol-2-yl)ethyl]amino}propyl]pyrrolidin-1-yl}-2-oxoethyl)-5,5,10-trimethyl-3,6,9-trioxo-8-(propan-2-yl)-2,13-dioxa-4,7,10-triazatetradec-1-yl]phenyl}-N˜5˜-carbamoyl-L-ornithinamide] (H-[dA]KV[Cit][PABC][Aib]V[Dil][Dolaproine]-Doe)
  DAR after plasma incubation for 3 to 4.5 days: 1.07
  Conjugate stability (%): 58%
  DAR: 1.82

## CC[C@H](C)[C@@H]([C@@H](CC(=O)N1CCC[C@H]1[C@H](OC)[C@@H](C)C(=O)N[C@@H](Cc1ccccc1)c1nccs1)OC)N(C)C(=O)[C@@H](NC(=O)C(C)(C)NC(=O)OCc1ccc(NC(=O)[C@H](CCCNC(N)=O)NC(=O)[C@@H](NC(=O)[C@H](CCCCN)NC(=O)CNC(C)=O)C(C)C)cc1)C(C)C [Example 37, N-acetylglycyl-L-lysyl-L-valyl-N-{4-[(8S,11S,12R)-11-[(2S)-butan-2-yl]-12-(2-{(2S)-2-[(1R,2R)-1-methoxy-2-methyl-3-oxo-3-{[(1S)-2-phenyl-1-(1,3-thiazol-2-yl)ethyl]amino}propyl]pyrrolidin-1-yl}-2-oxoethyl)-5,5,10-trimethyl-3,6,9-trioxo-8-(propan-2-yl)-2,13-dioxa-4,7,10-triazatetradec-1-yl]phenyl}-N˜5˜-carbamoyl-L-ornithinamide] (Ac-GKV[Cit][PABC][Aib]V[Dil][Dolaproine]-Doe)
  DAR after plasma incubation for 3 to 4.5 days: 0.85
  Conjugate stability (%): 44%
  DAR: 1.94

## CC[C@H](C)[C@@H]([C@@H](CC(=O)N1CCC[C@H]1[C@H](OC)[C@@H](C)C(=O)N[C@@H](Cc1ccccc1)c1nccs1)OC)N(C)C(=O)[C@@H](NC(=O)C(C)(C)NC(=O)OCc1ccc(NC(=O)[C@H](CCCNC(N)=O)NC(=O)[C@@H](NC(=O)[C@H](CCCCN)NC(=O)[C@@H](N)CO)C(C)C)cc1)C(C)C [Example 38, L-seryl-L-lysylvalyl-N-{4-[(8S,11S,12R)-11-[(2S)-butan-2-yl]-12-(2-{(2S)-2-[(1R,2R)-1-methoxy-2-methyl-3-oxo-3-{[(1S)-2-phenyl-1-(1,3-thiazol-2-yl)ethyl]amino}propyl]pyrrolidin-1-yl}-2-oxoethyl)-5,5,10-trimethyl-3,6,9-trioxo-8-(propan-2-yl)-2,13-dioxa-4,7,10-triazatetradec-1-yl]phenyl}-N˜5˜-carbamoyl-L-ornithinamide] (H-SKV[Cit][PABC][Aib]V[Dil][Dolaproine]-Doe)
  DAR after plasma incubation for 3 to 4.5 days: 1.32
  Conjugate stability (%): 90%
  DAR: 1.47

## CC[C@H](C)[C@@H]([C@@H](CC(=O)N1CCC[C@H]1[C@H](OC)[C@@H](C)C(=O)N[C@@H](Cc1ccccc1)c1nccs1)OC)N(C)C(=O)[C@@H](NC(=O)C(C)(C)NC(=O)OCc1ccc(NC(=O)[C@H](CCCNC(N)=O)NC(=O)[C@@H](NC(=O)[C@H](CCCCN)NC(=O)[C@H](N)CO)C(C)C)cc1)C(C)C [Example 39, D-seryl-L-lysylvalyl-N-{4-[(8S,11S,12R)-11-[(2S)-butan-2-yl]-12-(2-{(2S)-2-[(1R,2R)-1-methoxy-2-methyl-3-oxo-3-{[(1S)-2-phenyl-1-(1,3-thiazol-2-yl)ethyl]amino}propyl]pyrrolidin-1-yl}-2-oxoethyl)-5,5,10-trimethyl-3,6,9-trioxo-8-(propan-2-yl)-2,13-dioxa-4,7,10-triazatetradec-1-yl]phenyl}-N˜5˜-carbamoyl-L-ornithinamide] (H-[dS]KV[Cit][PABC][Aib]V[Dil][Dolaproine]-Doe)
  DAR after plasma incubation for 3 to 4.5 days: 1.53
  Conjugate stability (%): 82%
  DAR: 1.87
